Data published in paper PMC9103184, “Kunitz-Type Peptides from Sea Anemones Protect Neuronal Cells against Parkinson’s Disease Inductors via Inhibition of ROS Production and ATP-Induced P2X7 Receptor Activation” (International Journal of Molecular Sciences, 2022).

Experiments:
Neuro-2a cells = test: ATP-induced Neuro-2a cell death (MTT); format: cell-based, murine
Description: Figure 11 The effects of the peptides on ATP-induced Neuro-2a cell viability and activation of P2X7R. (a) Impact of the peptides on Neuro-2a cell viability in the presence of 4 mM ATP. The peptides were tested at concentrations of 0.01, 0.1, and 1.0 μM. Cells were incubated with peptides for 1 h at 37 °C, then for 48 h with ATP. […] The peptide effects were evaluated against the effects of ATP. The data are shown as means ± SE; *—p < 0.05 compared to the effect of ATP alone. […]
Then, 20 μL of substance solution was loaded into the cells and incubated for 24 h followed by replacement of the medium with tested substances and 100 μL of fresh medium. […] The absorbance of the converted dye formazan was measured using a Multiskan FC microplate photometer (Thermo Scientific, Waltham, MA, USA) at a wavelength of 570 nm [83, 84]. […] Cytotoxic activity was expressed as the percentage of cell viability.
At the end of the preincubation period, the cells were treated with peptides at concentrations of 0.01, 0.1, 1, and 10 μM for 1 h, after which 600 μM paraquat, 10 μM rotenone, 80 μM of 6-OHDA, 1 mM MPP^+, or 4 mM ATP (Sigma-Aldrich, St. Louis, MO, USA) was added. […] Cell viability was measured after 24 h (with paraquat, rotenone and 6-OHDA) or 48 h (with ATP and MPP^+) using the MTT assay [85, 86, 87].

P2X7R [1] = test: ATP-induced YO-PRO-1 uptake in Neuro-2a cells; format: cell-based, murine
Description: Figure 11 The effects of the peptides on ATP-induced Neuro-2a cell viability and activation of P2X7R. (a) Impact of the peptides on Neuro-2a cell viability in the presence of 4 mM ATP. The peptides were tested at concentrations of 0.01, 0.1, and 1.0 μM. Cells were incubated with peptides for 1 h at 37 °C, then for 48 h with ATP. (b) Effects of the peptides (0.01, 0.1, and 1.0 μM) on YO-PRO-1 uptake in Neuro-2a cells. ATP was used as a P2X7R agonist. A438079 (10 μM) was used as a standard inhibitor of P2X7R. The peptide effects were evaluated against the effects of ATP. The data are shown as means ± SE; *—p < 0.05 compared to the effect of ATP alone.
For the uptake measurements of the large cationic dye YO-PRO-1, the peptides at final concentrations of 0.01, 0.1, and 1.0 μM were added to the culture medium with Neuro-2a cells and further incubated for 1 h at 37 °C with 5% CO2. Then, the cells were washed once with Hanks’ balanced salt solution (HBSS) (140 mM NaCl, 5 mM KCl, 0.8 mM MgCl2, 2 mM CaCl2, 10 mM glucose, 10 mM HEPES, pH 7.4) and filled with 180 μL of the same buffer. YO-PRO-1 (Sigma-Aldrich, St. Louis, MO, USA) was loaded into the wells to a final concentration of 5 μM, the cells were incubated for 15 min at 37 °C, then ATP was added to a final concentration of 4 mM and the plates were incubated for an additional 10 min. Then, the cells were washed three times with the buffer solution and the fluorescence intensity levels were measured with a PHERAstar FS plate reader (BMG, Germany) at λex = 480 nm and λem = 520 nm. A438079 (10 μM), a standard inhibitor of P2X7R, was used as positive control. The effectiveness of the peptides was evaluated relative to the control with ATP.

P2X7R [2] = format: cell-based, murine
Description: Neuro-2a cells were pre-incubated with studied peptides for 1 h at 37 °C with 5% CO2. Then, cells were washed twice with culture medium and loaded with 5 μM Fluo-8 dye (Sigma-Aldrich, St. Louis, MO, USA) and 1 μM Pluronic F-127 (Sigma-Aldrich, St. Louis, MO, USA) and incubated for 40 min at room temperature in HBSS saline at pH 7.4. Then, the cells were washed two times with the same solution but without the fluorescent dye and were incubated for 20–30 min at room temperature in the dark. In some experiments, Ca^2+-free medium was used. Here, 140 mM NaCl, 5 mM KCl, 0.8 mM MgCl2, 10 mM glucose, 10 mM HEPES, 5 mM EGTA, pH 7.4. ATP (1 mM final concentration) were added using a robotic microinjector (20 μL/well), then 10 s later the baseline recording and additional readings were taken up to 50 s at 1 s intervals. The standard P2X7R inhibitor A438079 (Sigma-Aldrich, St. Louis, MO, USA) was used as the inhibitory control. Ionomycin (Sigma-Aldrich, St. Louis, MO, USA) was used to generate a generic calcium signal in cells. Fluo-8 was excited at 488 nm, and the emission at 520 nm was measured with a PHERAstar plate reader (BMG LABTECH, Ortenberg, Germany).

TRPV1 channels = test: Electrophysiology on TRPV1 channels expressed in Xenopus laevis oocytes; format: cell-based
Description: Oocytes were injected with 50 nL of cRNA at a concentration of 1 ng/nL using a micro-injector (Drummond Scientific, Broomall, PA, USA).

[3] = biological target: recombinant human P2X7R (47-334, complete extracellular domain) (human) (UniProt Q99572)
[4] = biological target: recombinant human P2X7R (47-334, complete extracellular domain) (human) (UniProt Q99572); remark: listed apart in the source
[5] = calculated using the CDSSR algorithm [54], cited from earlier work
Description: Table 1 The peptide secondary structural elements. | column: α-Helix / I; α-Helix / II; α-Helix / III; β-Structure / I; β-Structure / II; β-Structure / III; β-Turn; Unordered Structure

Clc1cccc(-c2nnnn2Cc2cccnc2)c1Cl [A438079]
increase in viability of ATP-treated cells (Neuro-2a cells; 10 μM, pre-incubation, 4 mM ATP 48 h, vs ATP alone): 21.3 ± 0.5%
reduction of ATP-induced YO-PRO-1 uptake (P2X7R [1]; 10 μM (standard inhibitor), 4 mM ATP, means ± SE): 18.5 ± 3.2%
decrease in ATP-induced stable calcium response (P2X7R [2]; 10 μM, 1 mM ATP, Fluo-8, relative to control, means ± SE): 47.7 ± 4.4%

Nc1ncnc2c1ncn2[C@@H]1O[C@H](COP(=O)(O)OP(=O)(O)OP(=O)(O)O)[C@@H](O)[C@H]1O [ATP, adenosine-5’-triphosphate]
total dead cells after ATP (Neuro-2a cells; ATP 4 mM, 48 h, compared with control cells): up to 30.15 ± 0.68%
increase in YO-PRO-1 dye penetration (P2X7R [1]; ATP 4 mM): 49.4 ± 5.9%
effect on [Ca2+]i (P2X7R [2]; ATP 1 mM): large sustained increase in [Ca^2+]i

COc1cc(CNC(=O)CCCC/C=C/C(C)C)ccc1O [capsaicin]
effect on TRPV1 channels (TRPV1 channels; capsaicin 2 µM (agonist control)): activation of the TRPV1 channels

Oc1cc2c(cc1O)CN(C(=S)NCCc1ccc(Cl)cc1)CCC2 [capsazepine]
effect on TRPV1 channels (TRPV1 channels; capsazepine 10 µM (antagonist control)): blocking of the channels

Kunitz-type peptide HCIQ4c7
decrease of trypsin-inhibitory activity (BAPNA hydrolysis) of 7 uM peptide after preincubation at 25 to 100 °C; value after 100 °C (trypsin): 7 % decrease
reduction of ATP (4 mM)-induced YO-PRO-1 dye uptake into mouse Neuro-2a cells; peptide at 0.01, 0.1 and 1.0 uM; value at 1 uM [3]: 28.5%
decrease of the stable Ca2+ response (Fluo-8) to 1 mM ATP in mouse Neuro-2a cells pre-incubated with the peptide at 0.1, 1.0 and 10.0 uM; value at 10 uM [4]: 59.1%

Kunitz-type peptide HMIQ3c1
reduction of ATP (4 mM)-induced YO-PRO-1 dye uptake into mouse Neuro-2a cells; peptide at 0.01, 0.1 and 1.0 uM; value at 0.1 uM [3]: 28.1%
decrease of the stable Ca2+ response (Fluo-8) to 1 mM ATP in mouse Neuro-2a cells pre-incubated with the peptide at 0.1, 1.0 and 10.0 uM; value at 10 uM [4]: 40.6%

SHPI-1: Kunitz-type peptide from Stichodactyla helianthus, UniProtKB P31713 (SICSEPKKVGRCKGYFPRFYFDSETGKCTPFIYGGCGGNGNNFETLHQCRAICRA; UniProt P31713 1-55, looked up)
Unordered Structure [5]: 40.0
β-Turn [5]: 18.2
α-Helix III ([5]; summary value): 20.0
β-Structure III ([5]; summary value): 21.8
